Tests used:
Test in all cases: Kinetic parameters of conversion of peptide substrates by murine isoQC
Format in all cases: biochemical, mouse
Details in all cases: pH 8.0; 30.0 °C
[1] = substrate: C[C@H](NC(=O)[C@H](Cc1ccc(O)cc1)NC(=O)[C@@H](N)CCC(N)=O)C(=O)O
[2] = substrate: NC(=O)CC[C@H](N)C(=O)NCC(=O)N1CCC[C@H]1C(=O)O
[3] = substrate: NC(=O)CC[C@H](N)C(=O)N[C@@H](CCC(=O)O)C(=O)O

B1: mouse-isoQC (Mus musculus; I74N) (protein)
chain: EEMSRSRDLRVPLNGSLSEAKLRLVVGQLDPQRLWGTFLRPLLIVRPPGSSGNLQVRKFLEATLQSLSAGWHVELDPFTASTPLGPLDFGNVVATLDPGAARHLTLACHYDSKFFPPGLPPFVGATDSAVPCALLLELVQALDAMLSRIKQQAAPVTLQLLFLDGEEALKEWGPKDSLYGSRHLAQIMESIPHSPGPTRIQAIELFVLLDLLGASSPIFFSHFPRTARWFQRLRSIEKRLHRLNLLQSHPQEVMYFQPGEPPGPVEDDHIPFLRRGVPVLHLIATPFPAVWHTPADTEANLHPPTVHNLSRILAVFLAEYLGL
notes: starting with codon 43 (Glu 43) of the open reading frame (counting from methionine II); yeast alpha-factor secretion signal (N); made in house; host or cells: Pichia pastoris X-33
- Km [1]: 58 ± 4 µM
- kcat [1]: 22.9 ± 0.86 s⁻¹
- kcat/Km [1]: 394230 ± 21360 M⁻¹ s⁻¹
- Km [2]: 102 ± 6 µM
- kcat [2]: 11.4 ± 0.4 s⁻¹
- kcat/Km [2]: 111440 ± 6810 M⁻¹ s⁻¹
- Km [3]: 470 ± 40 µM
- kcat [3]: 7.79 ± 0.44 s⁻¹
- kcat/Km [3]: 16880 ± 2320 M⁻¹ s⁻¹
